Results published in patent US20170292963A1.

Target: Mouse BACE1 (beta amyloid precursor protein cleavage enzyme 1), native protein in mouse brain lysate or neurons (mouse) (UniProt P56818)
Assay: cell-based or functional assay

Sequence of Mouse BACE1 (beta amyloid precursor protein cleavage enzyme 1), native protein in mouse brain lysate or neurons (mouse) (P56818 46-501 limits assumed): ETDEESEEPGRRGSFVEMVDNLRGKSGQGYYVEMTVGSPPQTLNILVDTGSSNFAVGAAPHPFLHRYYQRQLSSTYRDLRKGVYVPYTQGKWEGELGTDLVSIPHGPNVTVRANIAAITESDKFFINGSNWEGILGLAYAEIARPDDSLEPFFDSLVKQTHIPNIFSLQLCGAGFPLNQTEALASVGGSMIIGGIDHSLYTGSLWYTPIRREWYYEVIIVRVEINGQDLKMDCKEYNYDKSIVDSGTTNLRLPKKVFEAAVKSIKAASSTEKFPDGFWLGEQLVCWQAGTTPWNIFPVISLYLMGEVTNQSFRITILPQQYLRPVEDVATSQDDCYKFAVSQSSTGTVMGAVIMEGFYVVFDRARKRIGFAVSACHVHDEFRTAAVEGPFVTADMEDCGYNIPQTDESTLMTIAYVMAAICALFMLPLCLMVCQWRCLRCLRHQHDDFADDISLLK

## Mouse NPTX1 (Neuronal Pentraxin 1), native protein in mouse brain lysate or neurons (from UniProt Q62443 23-432)
  BACE1 internalized within 12 min at 37 C as percent of surface expression, NPTX1-/- neurons (surface biotinylation assay): 95%
  BACE1 internalized within 12 min at 37 C as percent of surface expression, WT neurons (surface biotinylation assay): 37.5%
  hAβ40 in media of hAPP/NPTX1-/- neurons compared to hAPP neurons (ELISA): 2 fold
